{"source": "paper PMC10175261", "binders": {"B1": {"name": "Fork 1 (structured_DNA)", "DNA 1": "GCAAGCCTTCTACAGGTCGACCGTCCATGGCGACTCGAGACCGCAATACGGATAAGGGCTGAGCACGCCGACGAACATTCACCACGCCAGACCACGTA", "DNA 2": "GACTATCTACGTCCGAGGCTCGCGCCGCAGACTCATTTAGCCCTTATCCGTATTGCGGTCTCGAGTCGCCATGGACGGTCGACCTGTAGAAGGCTTGC", "DNA 3": "TACGTGGTCTGGCGTGGTGAATGTTCGTCGGCGTGCTC"}}, "target": "PriA (Escherichia coli, UniProt P17888 1-732)", "details": "protein: recombinant; tags: N-terminal His; label: 5'-32P on 3L-98 (strand 2); fork 1:2 1:3; ssDNA lagging arm (strand 2)", "data": [{"binder": "B1", "values": [{"measurement": "binding signal", "value": "91.9 ± 4.1", "unit": "% fork shifted"}]}]}
